The DeepSol protein solubility set

Experiment: soluble on expression in E. coli; label from the status in PepcDB or PDB records

Sequence	soluble on expression in E. coli
MSKRDYYETLGVSQDASEKEVKKAYKKLAMKYHPDRTQGDKSKEETFKEVKEAYEILNDDQKRAAYDQYGHAAFEQGGNGGGGGGHGGGFGQDFGDIFGDIFGGGGGGRGRQRQQRGSDLRYNVDLSLEDAVKGKSLEIKVPTYVSCEPCDGSGAKKGTSAKTCSTCHGHGQVQMRQGLFAVQQTCPTCSGKGKVIADKCTSCRGQGRVEKTKTLSVKIPAGVDTGDRIRLSGEGEAGEHGAPAGDLYVQVNVRDHEIFVRDENHLYCEVPISFVTAALGGDIEVPTLGGKVKLKVPKETQTGKMFRLRGKGVKSVRSSTTGDLMCKVVIETPVNLSGDQADLLRQLEEKMASSSKKHSPKETGFFDGVKKFFDDLKS	not soluble
MNKNLKFTQMMIGISTMALSFGSIQTHVSAEETASYNILQMKPIGTETSKDEIVHATKADETLTFEERLKVGDFSQRPTLVMERDEIQLKQSYTLAELNKMPNSELIDTLSKISWNQITDLFQFNQDTKAFYQNKERMNVIINELGQRGRTFTKENSKGIETFVEVLRSAFYVGYYNNELSYLKERSFHEKCLPALKAIAKNPNFTLGTAEQDRVVAAYGKLIGNASSDTETVQYAVNVLKQYNDNLTTYVSDYAKGQAVYEIVKGIDYDIQSYLQDTNKQPNETMWYGKIDNFINEVNRIALVGNITNENSWLINNGIYYAGRLGKFHSNPYKGLEVITQAMSLYPRLSGPYFVAVEQIKTNYGGKDYSGKAVDLQKIREEGKRQYLPKTYTFDDGSIVFKTGDKVTEEKIKRLYWAAKEVKAQYHRVIGNDKALEPGNADDVLTIVIYNNPDEYQLNRQLYGYETNNGGIYIEEKRTFFTYERTPKQSIYSLEELFRHEFTHYLQGRYEVPGLFGSGEMYQNERLTWFQEGNAEFFAGSTRTNNVVPRKSMISGLSSDPASRYTAKQTLFSKYGSWDFYKYSFALQSYLYNHQFDTFDKLQDLIRVNDVKNYDSYRESLSNNTQLNAEYQAYMQQLIDNQDKYNVPQVTNDYLIQHAPKPLAEVKNEIVDVANIKDAKITKYESQFFNTFTVEGKYTGGTSKGESEDWKTMSKQVNRTLEQLSQKGWSGYKTVTAYFVNYRVNAANQFEYDIVFHGVATEEKEKTNTIVNMNGPYSGIVNEEIQFHSDGTKSENGKVTSYLWNFGDGTTSTEANPTHVYEEKGTYTVELTVKDRRGKESKEQTKVTVKQDPQTGEFHEEEKVLLFNTLVKGNLVTPDQTDVYTFDVTDTKEVDISVVNEQNIGMTWVLYHESDMQNYVACGEDEGNVIKGKFEAKPGKYYLNVYKFDDKNGEYSLLVK	not soluble
MADSDLPTKGRQRGVRAVELNVAARLENLALLRTLVGAIGTFEDLDFDAVADLRLAVDEVCTRLIRSALPDATLRLVVDPRKDEVVVEASAACDTHDVVAPGSFSWHVLTALADDVQTFHDGRQPDVAGSVFGITLTARRAASSR	not soluble
MSLSSAQQWSYVRQLQREIRRSDVLDLPLEKLPVVVFDLETSGFYPDQGDRILSIGAVKVVGLTIQEEETFYSVVHTDTVPPENILELTGLSVEELEAAPPLTSVLESFYAFIRHSTLVAHHASHEKAFMSHVTWQTMKLPFEHRVIDTSFLTKIVAPQELVTLDDCCAYYSIPVQNRHHAFEDSLMTAKLWIAAIAAAREAGFETLRDIYVHLAHQREGHHHHHH	soluble
PEKKKRKRGSRGGKKGRKSRIANIPNFEQSLKNLVVSEKILGYGSSGTVVFQGSFQGRPVAVKRMLIDFCDIALMEIKLLTESDDHPNVIRYYCSETTDRFLYIALELCNLNLQDLVESKNVSDENLKLQKEYNPISLLRQIASGVAHLHSLKIIHRDLKPQNILVSTSSRFTADQQTGAENLRILISDFGLCKKLDSGQSSFRTNLNNPSGTSGWRAPELLEESTKRRLTRSIDIFSMGCVFYYILSKGKHPFGDKYSRESNIIRGIFSLDEMKCLHDRSLIAEATDLISQMIDHDPLKRPTAMKVLRHPLFWPKSKKLEFLLKVSDRLEIENRDPPSALLMKFDAGSDFVIPSGDWTVKFDKTFMDNLERYRKYHSSKLMDLLRALRNKYHHFMDLPEDIAELMGPVPDGFYDYFTKRFPNLLIGVYMIVKENLSDDQILREFLYS	soluble
MGSDKIHHHHHHMQGSAMLVHPQYDSNCPKTSVEVSEGFGGWFARICEDDQETFHQFRRERDAIAFADTQRMRLGLPCPPLERTASSGHKAIRKINQIADVLRTRGLGRFLQLSTLSLSEPIRSQRLRYRVASDARQALSKIKAASRHRGLFIDCGSNIGQAYKFFSRYYTPDYYDYVLVEPNKNCLEHLHSLRSENVAIEVVAKAASVKDGYAEFLGPPGRSDLTYEGCSIVPSHNGGLYPSQRFTPELVETFSLSQMIQAKRGLYEVIVLKLDVEGAEYEILDDLIRSGLHRDLHATYVEFHSLYMRNSEGRKTAVVERKIVDEFQQAGTHISRWI	not soluble
MNHQYQDLIDIFNQTFYADYNTKLELGGDEPIYLPADERVSYHRIIFARGFYASALHEIAHWCVAGPQRRLLEDFGYWYEPDGRTAQVQAEFEKVEIRPQAYEWILAISAGFPFTVSCDNLNGDFEPDRLAFMSKVHSEVLKILEQGLPQRVKMLSEALRAFYQTPALLPEHFVVK	not soluble
MSLPLVTLNSVRFAGMATCVPKRVVSNLTDCKPQIRPERERLVRNIGIELRRLTQEWQCFSDLAFDAASKLIESLEWKLEEIDALIVVTQSPDYLAPATAIILQDRLGLPHTTLAFDVNLGCSGYPFGLHLLGSLISAGGIKKGLVLVGDSGAQLNDPIFSDAGTATAMEFCADAPPMYFDLNSDGSGHKAIILPVGGHREPVGIQHLVPFRENENDHWHRAIDLQLDGTAVLSFSTQRVPPAVEKLLEYANASKDEVDYFIFHQANRMINETIRKKLALPVEKVPSTLRDFGNTSGASLPVTMTARINKQLEEGSKRLVLSGFGIGLSWGTCLVDIQGAKFPDLIESEGHHHHHH	soluble
GPGSMHSTPAKEAEAEGYMRSGKKHLQKKLLQFKANYGGAAEDFDKAARIYTNLRNYPKAREAWTQACEAHSKAHNDFNAANSMEKLGDLASQCICESQSTMSSGSTAGMTAQLSEHLFQDAIHAYEEASKLYGVATNGSKQAAVLKKAADLISRSLATVHYRRPGTSGATTVDTAYLQKEYKRIIPELIELMERNWAATESKPFGLPDIYRSHVLLHLRSGDVEGAVHAEKRMIGIVSTSPADGTYDDSKNLFRILNQPSNAAKVGLEIVVLCLSTSVDDGYTWANIEMGRLGAVFGFCGSSEERAAAALLAAYAERDEDALQEALKTNTCFNFLAADVSRIAKKLTLGSKGHSKETGASVAAAGGPERSAAPPSSSQAPVDASETDSEDLR	soluble
MGSDKIHHHHHHMPTVERHIRGKWACDSCETLIQAPVPPQVIDKGIPTAGLLAQVLVAKYADHLPLYRQERMFGRAGLEIPRSTLAEWVGACGVQLQPLVDALRNTLLEHSVLHADETPVSMLAPGKKKTHKAYVWAYCTTPFADLKAAIYDFAPSRAGEHARTFLGDWRGKLVCDDYAGYKAGFGNGITEIGCMAHARRKFYDLHEANKSELAAKALEYIGGLYEIERETKDLPPDMRREIRQTKAKPLADALHQWMLAHRQKVPDGSGTAKALDYSLKRWEALTRYLDDGAVPIDNNWVENQIRPWALGRSNWLFAGSLRSGQRAAAVMTLIQSAKLNRHDPYAYLKDVLTRLPTQKNNAIDELLPHNWKPAIPNKV	not soluble
MSMKQAEFIQAKGYQARVTRTARAKTASIKVEEGMVSVVVPKALPIERIERILQEKHQWIIDKIALHKGLITSSEKQFVSGEAMPYLGRNYRLKVHAGSFEPVKLVQGRLVVIVPEGSVRSNLVREALIGWYKRSALLKLREKVRRYAKVIGVTPKSVNIKTFKSRWGSCNPKGDLDFNWIIVMAPNRIVDYVVVHELCHLKQLDHSPLFWKEVERVMPDYAECKEWLKNNAPKLTFLEHHHHHH	soluble
MGSDKIHHHHHHVDDGPCAARLRWTNSVMTEPLMPQTDVPFDELIIREYLLDNPDFFNRYPELLLAMRLPHMERGAISLVERRQEMLRQRVSQLEEEITSLLTMAARNEKIYQFNTELSFQLLNCADLVSLKEVLADSLKLQFNFSHVRLISVLDTDMKAIWDQRLHKGHYFGRLTQQEAKRLFGSEVGSVALTKLSEDNPVIFAIASQDATHFHPDMDNMLLEQLRRLLAHMLAKL	not soluble
GAMDENDEGVRGTCEDASLCKRFAVSIGYWHDPYIQHFVRLSKERKAPEINRGYFARVHGVSQLIKAFLRKTECHCQIVNLGAGMDTTFWRLKDEDLLPSKYFEVDFPMIVTRKLHSIKCKPPLSSPILELHSEDTLQMDGHILDSKRYAVIGADLRDLSELEEKLKKCNMNTQLPTLLIAECVLVYMTPEQSANLLKWAANSFERAMFINYEQVNEGKSLESQKERLLSNGWETASAVDMMELYNRLPRAEVSRIESLEFLDEMELLEQLMRHYCLCWATKGGNELGLKEITY	soluble
MPSIYITGVDPTIVKIHEIQGTGTASPLVNNVVTIEAIVVGDFQDGDGDISRNLRGFYVQEEDADVDGNVATSEGIFIFENGNFITDVNVGDKVQITGTVDEFFGETQIDTITNITVISSGNTLPTAANITLPTAGTTESQGGTPQPDLEAFEGMLVKFTDTLTITEMFNLDRFNEIKLSQGGRPQQFTQFNDANVAGYGAYREEIGARTITYDDGLSVQNAEISNLDGFGSSFSTASDIRMGDTINNLTGVLSYQWAGNASSGATWRVRSAVDGTNQFTKVNDRPVTPENVGGSLKVTGFNVLNYFKTIDLEHHHHHH	not soluble
MGSDKIHHHHHHMDMLSFELIRDGNRPLYEQLYQQIRQEIIEGRLAYGTKLPSKRKLGQFLNLSQTTIELAYQQLVAEGYVESVSRKGYFVLAYEELAYVKTTPLPTSQRSNQQPAMRYDFHPSKIDGSSFPFSRWRKHAKDVIDEQHQSLVSLGHPQGDLSLRLEIATYLYHSRGVVCSPEQIIIGSGVEQLLPHIVFLLGKTTTYGIEDPGYHATRLILKSHERSAVPIPVDQNGLVIPSLVQSPVDVMYVTPAHQFPSGSILSVNRRRQLLNWAAASDRRYIIEDDYDSEFRYSGKSIPSLHSMDSERVIYLSTFSKSLMPSLRIGYMVLPRPLLERYQTEFPYYTCSVSRFDQTILTRFMKEGDFEKHLNRMRKIYRRKLDVVVHALRDVPFLKLTGESAGLHVVLSVSNGMGEQELLRRAKDSSIQVYGLSDYAQLPLSTAYPQIVLGFASLTEQQLMQGLTELVTAWQLK	not soluble
MAASMTKPISITSLGFYSDRKNIAFSDCISICSGFRHSRPSCLDLVTKSPSNNSRVLPVVSAQISSDYIPDSKFYKVEAIVRPWRIQQVSSALLKIGIRGVTVSDVRGFGAQGGSTERHGGSEFSEDKFVAKVKMEIVVKKDQVESVINTIIEGARTGEIGDGKIFVLPVSDVIRVRTGERGEKAEKMTGDMLSPS	not soluble
MNKVVLLCRPGFEKECAAEITDKAGQREIFGFARVKENAGYVIYECYQPDDGDKLIRELPFSSLIFARQWFVVGELLQHLPPEDRITPIVGMLQGVVEKGGELRVEVADTNESKELLKFCRKFTVPLRAALRDAGVLANYETPKRPVVHVFFIAPGCCYTGYSYSNNNSPFYMGIPRLKFPAEAPSRSTLKLEEAFHVFIPADEWDERLANGMWAVDLGACPGGWTYQLVKRNMWVYSVDNGPMAQSLMDTGQVTWLREDGFKFRPTRSNISWMVCDMVEKPAKVAALMAQWLVNGWCRETIFNLKLPMKKRYEEVSHNLAYIQAQLDEHGINAQIQARQLYHDREEVTVHVRRIWAAVGGRRDER	not soluble
MQIKLPKPFFFEEGKRAVLLLHGFTGNSSDVRQLGRFLQKKGYTSYAPQYEGHAAPPDEILKSSPFVWFKDALDGYDYLVEQGYDEIVVAGLSLGGDFALKLSLNRDVKGIVTMCAPMGGKTEGAIYEGFLEYARNFKKYEGKDQETIDNEMDHFKPTETLKELSEALDTIKEQVDEVLDPILVIQAENDNMIDPQSANYIYDHVDSDDKNIKWYSESGHVITIDKEKEQVFEDIYQFLESLDWSE	not soluble
